Experimental data published in the supplement of paper PMC7877785.
± gives the uncertainty stated by the source.

Test: self-splicing fitness, log relative to wild type (ln ratio); higher = more splicing; Tetrahymena group I intron in knt gene, E. coli kanamycin selection, DiMSum; sequences stand for … in CUCUCU…GGAGGGAAAAGUUAUCAGGCAUGCACCUGGUAGCUAGUCUUUAAACCAAUAGAUUGCAUCGGUUUAAAAGGCAAGACCGUCAAAUUGCGGGAAAGGGGUCAACAGCCGUUCAGUACCAAGUCUCAGGGGAAACUUUGAGAUGGCCUUGCAAAGGGUAUGGUAAUAAGCUGACGGACAUGGUCCUAACCACGCAGCCAAGUCCUAAGUCAACAGAUCUUCUGUUGAUAUGGAUGCAGUUCACAGACUAAAUGUCGGUCGGGGAAGAUGUAUUCUUCUCAUAAGAUAUAGUCGGACCUCUCCUUAAUGGGAGCUAGCGGAUGAAGUGAUGCAACACUGGAGCCGCUGGGAACUAAUUUGUAUGCGAAAGUAUAUUGAUUAGUUUUGGAGUACUCGUGGUCG
Method in brief: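 The eight P1ex-region nucleotides of an intron in the knt kanamycin-resistance gene on pET-22b(+) were all randomised and the library put into E. coli BL21(DE3). Six replicate transformations were grown overnight at 37°C or 30°C on LB agar with or without 25 μg/mL kanamycin, together with 100 μg/mL carbenicillin, 50 μM IPTG and 0.2% rhamnose. Colonies were pooled and amplicon-sequenced on an Illumina HiSeq 2500. Fitness from DiMSum is the error-weighted combination of wild-type-normalised replicate fold changes, kanamycin over none.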

| Sequence | self-splicing fitness (ln) (30 °C) | self-splicing fitness (ln) (37 °C) |
| --- | --- | --- |
| UGUGAGCAAUAUUACGAAGG | -3.98 ± 0.33 | -2.19 ± 0.3 |
| GCCAAGCAAUAUUACGCAUC | -0.673 ± 0.082 | 0.0458 ± 0.095 |
| CACAAGCAAUAUUACGUAAC | -2.43 ± 0.095 | -0.662 ± 0.14 |
| CGUUAGCAAUAUUACGGAGG | -1.43 ± 0.12 | -1.01 ± 0.11 |
| AUCAAGCAAUAUUACGAGUU | -1.57 ± 0.081 | -1.42 ± 0.097 |
| UGAUAGCAAUAUUACGCCCU | -0.0785 ± 0.15 | 0.0233 ± 0.21 |
| UCCGAGCAAUAUUACGCGUG | -2.6 ± 0.12 | -1.3 ± 0.1 |
| GGUAAGCAAUAUUACGGACG | 0.0239 ± 0.12 | 0.484 ± 0.15 |
| GGAUAGCAAUAUUACGGUGA | -2.43 ± 0.1 | -1.14 ± 0.091 |
| UCGCAGCAAUAUUACGUCUU | -1 ± 0.11 | -0.165 ± 0.12 |
| CCCUAGCAAUAUUACGGUAG | -3.6 ± 0.16 | -3.5 ± 0.21 |
| UCGAAGCAAUAUUACGGUGA | -0.813 ± 0.077 | 0.158 ± 0.091 |
| CUCCAGCAAUAUUACGGGAC | -2.79 ± 0.11 | -2.17 ± 0.14 |
| GACCAGCAAUAUUACGUUGU | -1.11 ± 0.047 | -0.336 ± 0.063 |
| CCUUAGCAAUAUUACGAUCC | -2.32 ± 0.4 | -2.74 ± 0.49 |
| CUUGAGCAAUAUUACGUCUC | -3.07 ± 0.24 | -2.19 ± 0.27 |
| CCUUAGCAAUAUUACGUUAA | -3.13 ± 0.27 | -2.71 ± 0.31 |
| AGCCAGCAAUAUUACGCGUG | -1.91 ± 0.089 | -1.35 ± 0.092 |
| GCGUAGCAAUAUUACGCAUC | -3.37 ± 0.5 | -1 ± 0.4 |

| Sequence | self-splicing fitness (ln) (30 °C) | self-splicing fitness (ln) (37 °C) |
| --- | --- | --- |
| UAGCAGCAAUAUUACGCAGA | -1.67 ± 0.14 | -1.33 ± 0.088 |
| GCAGAGCAAUAUUACGCUUG | -3.5 ± 0.21 | -2.83 ± 0.31 |
| AUCCAGCAAUAUUACGGAAC | -2.68 ± 0.18 | -1.06 ± 0.15 |
| GUCUAGCAAUAUUACGCCUC | -0.0816 ± 0.058 | -0.181 ± 0.068 |
| UGCAAGCAAUAUUACGUAAA | -1.9 ± 0.087 | -1.01 ± 0.12 |
| CCACAGCAAUAUUACGCUUU | -4.05 ± 0.25 | -2.18 ± 0.19 |
| GGGUAGCAAUAUUACGCGAG | -1.85 ± 0.32 | -0.555 ± 0.18 |
| AACUAGCAAUAUUACGGCUA | -1.08 ± 0.11 | -1.22 ± 0.11 |
| GUCAAGCAAUAUUACGUGGU | -4.8 ± 0.3 | -3.09 ± 0.16 |
| ACCAAGCAAUAUUACGGAUG | -2.47 ± 0.069 | -2.48 ± 0.088 |
| AUUCAGCAAUAUUACGAUAU | -0.41 ± 0.057 | 0.146 ± 0.079 |
| AAUUAGCAAUAUUACGAGUU | -1.48 ± 0.12 | -1.28 ± 0.15 |
| ACGUAGCAAUAUUACGAAAG | -3.88 ± 0.25 | -3.59 ± 0.31 |
| AUUAAGCAAUAUUACGAGUA | -2.07 ± 0.16 | -1.49 ± 0.13 |
| UCGUAGCAAUAUUACGCCUA | -0.658 ± 0.13 | 0.291 ± 0.11 |
| CUGCAGCAAUAUUACGAAUU | -3.62 ± 0.22 | -3.18 ± 0.43 |
| UACAAGCAAUAUUACGUGUG | -2.96 ± 0.11 | -1.7 ± 0.1 |
| UUAUAGCAAUAUUACGUGGA | -2.5 ± 0.41 | -1.23 ± 0.22 |
